Source: patent publication US20260234209A1

B1: C8-71C_mb7 (designed binder)
chain: MEKKIGPEEILERAKESLERAREASERGDEEEFRKAAEKALELAKRLVEQAKKEGDPELVLEAARVALWVAELAAKNGDKEVFKKAAESALEVAKRLVEVASKEGDPDLVAWAALVALWVAFLAFLNGDKEVFKKAAESALEVAKALMEVAMKVGAPWLVELAIAVARAVWLLAELFGDEEVRRRAEAFEIILRIAAIAVKAWLGGGGSDRRKEMDKVYRTAYKRITSTPDKEKRKEVVKEATEQLRRIAKDEEEKKKAAYMISFLKTLGSLEHHHHHH
B2: C4-71C_mb7 (designed binder)
chain: MGPEEILERARESLERAREASERGDEEEFRKAAEKALELAKRLVEQAKKEGDPWMVMWAALVALWVALLALRNGDKEVFKKAAESALEVAKRLVEVASKEGDPEMVLLAAWVALFVAWLAWLFGDKEVFKKAAESALEVAKRLVEVASKEGDPELVEEAAKVAEEVEKLAEKQGDEEVREKAWETWMEVWLLWLEVRLRKGGGGSDRRKEMDKVYRTAYKRITSTPDKEKRKEVVKEATEQLRRIAKDEEEKKKAAYMISFLKTLGSLEHHHHHH
B3: C2-58-2X_mb7 (designed binder)
chain: MHHHHHHAENLYFQSGSDEELLRELLKLLLKLLEQMGDEEARRVVEELREELEKKGDPRALVLAFALVILVFLLRILRELGDEELVRRVEELWEELLKEGDPQAMMEVFKLVQELQERRGSGSDRRKEMDKVYRTAYKRITSTPDKEKRKEVVKEATEQLRRIAKDEEEKKKAAYMISFLKTLGS
B4: C4-71N_mb7 (designed binder)
chain: MGDRRKEMDKVYRTAYKRITSTPDKEKRKEVVKEATEQLRRIAKDEEEKKKAAYMISFLKTLGSPEEILERARESLERAREASERGDEEEFRKAAEKALELAKRLVEQAKKEGDPWMVMWAALVALWVALLALRNGDKEVFKKAAESALEVAKRLVEVASKEGDPEMVLLAAWVALFVAWLAWLFGDKEVFKKAAESALEVAKRLVEVASKEGDPELVEEAAKVAEEVEKLAEKQGDEEVREKAWETWMEVWLLWLEVRLRKGGGGSLEHHHHHH
B5: C6-79C_mb7 (designed binder)
chain: MGSSDEEEARELEERAREAAKRAIEAAKRTGDPRVRELAEELVKLAIWAAVEVWLDPSSSDVNEALKLIVEAIEAAVRALEAAERTGDPEVRELARELVRLAVEAAEEVQRNPSSSDVNEALKLIVIAIEAAVRALEAAERTGDPEVRELARELVRLAVEAAEEVQRNPSSEEVNEALRKIIKLILFAVMVLELAEEIGDPTWREMARRAVREAVELAEEVQRDPSGWLGHGSDRRKEMDKVYRTAYKRITSTPDKEKRKEVVKEATEQLRRIAKDEEEKKKAAYMISFLKTLGSLEHHHHHH

Target: human FGFR1c (human), P11362
Test: cell-based or functional assay

human FGFR1c (human), P11362, sequence (P11362 22-822): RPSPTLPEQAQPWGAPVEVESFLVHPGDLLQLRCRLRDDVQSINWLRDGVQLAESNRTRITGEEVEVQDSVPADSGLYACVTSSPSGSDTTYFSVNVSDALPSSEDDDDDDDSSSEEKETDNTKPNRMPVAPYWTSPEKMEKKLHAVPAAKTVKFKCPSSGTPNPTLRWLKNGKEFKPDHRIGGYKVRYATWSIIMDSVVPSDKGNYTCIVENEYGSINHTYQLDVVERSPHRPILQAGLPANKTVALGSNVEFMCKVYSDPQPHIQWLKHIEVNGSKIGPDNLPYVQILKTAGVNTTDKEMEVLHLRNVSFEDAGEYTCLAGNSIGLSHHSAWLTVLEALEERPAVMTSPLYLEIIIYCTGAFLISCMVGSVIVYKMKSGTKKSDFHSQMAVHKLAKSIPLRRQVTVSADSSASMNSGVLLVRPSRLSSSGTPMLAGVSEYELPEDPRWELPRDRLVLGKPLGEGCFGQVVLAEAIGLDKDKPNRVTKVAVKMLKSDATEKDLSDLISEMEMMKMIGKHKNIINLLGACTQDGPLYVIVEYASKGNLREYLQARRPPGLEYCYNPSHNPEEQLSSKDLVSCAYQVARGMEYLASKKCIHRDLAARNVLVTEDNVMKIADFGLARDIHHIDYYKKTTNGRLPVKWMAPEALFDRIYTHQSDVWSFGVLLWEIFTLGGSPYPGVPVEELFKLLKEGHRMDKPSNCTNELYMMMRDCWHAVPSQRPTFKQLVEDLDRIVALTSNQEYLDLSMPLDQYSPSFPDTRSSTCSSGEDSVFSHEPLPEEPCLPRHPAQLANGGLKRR

EC50 of ERK1/2 phosphorylation (phosphoflow) in CHO-R1c cells	EC50 of intracellular calcium release in CHO-R1c cells	EC50 of ERK phosphorylation (phosphoflow), C4-71N mb7 extension series	Binder
2.07 nM	3.09 nM		B1
1.33 nM	0.72 nM		B2
0.63 nM	26 nM		B3
0.89 nM		1.3 nM	B4
1.56 nM	0.38 nM		B5
